Measurements as given in the DeepSol protein solubility set.

Experiment: soluble on expression in E. coli; label from the status in PepcDB or PDB records

Sequence	soluble on expression in E. coli
MKNVVIHQIVTLIFTEDQLRAYWQKQESTVPFAALTDAQYMKLAEDMLAHSSHSQLEQHLLGGRWRTKEEAEGAVLAEDESRDDIHVEIIDTNAPAEPRRRMLIDRVREILCPHCSFTFYVREAASERRDWTCPACGSGFCDLTP	not soluble
MGVCRICGLSLDEISDSIGVCLECLRKGNLDFARKAHRKWREEIGLPVERWAREEGKVCFLCVNSCVIPEGKTGFCGVLRNEGGRLSYITGSHRKAFLHWYYDPHPTNCVALPICPEREHRGFYNFAVFFAGCNLDCLFCQNIDHKYMVKDGRISEGKIVDIDELVEIAMKPRVSCVCFFGGDPTPWTVFALEFAVKLGNRRRICWETNGLAHPRIMERMARVSLESGGIVKIDWKAFSPEVYEALTGVDGKSAVRRIMENVQLVSSMGKGREIPLLVISVLVIPHYIDEKEIEGIAGFISSVDPEIPLVLLAFAPQHLMSDLPTTRKHHMERVKQKALEKGLKRVFVENVWLLS	not soluble
MEIKEMVSLARKAQKEYQATHNQEAVDNICRAAAKVIYENAAILAREAVDETGMGVYEHKVAKNQGKSKGVWYNLHNKKSIGILNIDERTGMIEIAKPIGVVGAVTPTTNPIVTPMSNIIFALKTCNAIIIAPHPRSKKCSAHAVRLIKEAIAPFNVPEGMVQIIEEPSIEKTQELMGAVDVVVATGGMGMVKSAYSSGKPSFGVGAGNVQVIVDSNIDFEAAAEKIITGRAFDNGIICSGEQSIIYNEADKEAVFTAFRNHGAYFCDEAEGDRARAAIFENGAIAKDVVGQSVAFIAKKANINIPEGTRILVVEARGVGAEDVICKEKMCPVMCALSYKHFEEGVEIARTNLANEGNGHTCAIHSNNQAHIILAGSELTVSRIVVNAPSATTAGGHIQNGLAVTNTLGCGSWGNNSISENFTYKHLLNISRIAPLNSSIHIPDDKEIWEL	soluble
MKPYQRQFIEFALNKQVLKFGEFTLKSGRKSPYFFNAGLFNTGRDLALLGRFYAEALVDSGIEFDLLFGPAYKGIPIATTTAVALAEHHDKDLPYCFNRKEAKDHGEGGSLVGSALQGRVMLVDDVITAGTAIRESMEIIQAHGATLAGVLISLDRQERGRGEISAIQEVERDYGCKVISIITLKDLIAYLEEKPDMAEHLAAVRAYREEFGV	soluble
MEPHSLRYNLTVLSWDGSVQSGFLTEVHLDGQPFLRCDRQKCRAKPQGQWAEDVLGNKTWDRETRDLTGNGKDLRMTLAHIKDQKEGLHSLQEIRVCEIHEDNSTRSSQHFYYDGELFLSQNLETKEWTMPQSSRAQTLAMNVRNFLKEDAMKTKTHYHAMHADCLQELRRYLKSGVVLRRTVPPMVNVTRSEASEGNITVTCRASGFYPWNITLSWRQDGVSLSHDTQQWGDVLPDGNGTYQTWVATRICQGEEQRFTCYMEHSGNHSTHPVPS	soluble
MGSDKIHHHHHHMIIMRFLIKVKPEERKFRVPYNHQYFLQGLIYNRIKLTNPRLSTFLHETKGPKLFTYSLFMTERREHPKGLPYFLGYRRGFFYFSTCIPEIAEAFITGLFREPEITLWGEKFYLEEVKTLKEPKKFSGSTFITLSPIAVTMEKGGKRYDVSPLEEEFYALIRENLKDKYVMIKGEKPPDDFEMEIIAAKPKRFEVKPGIYQMAWHLVFRAYGDDELIRVGYVVGFGEKNSLGFGMVKVDEQRKRRKNIGSFQESMSFNENRELETGT	not soluble
MILRIIYTLLNYLSQPVLLLMMWRKTARHTKQTSRLWERYGIYRQLTAPRPQGIVIHAASVGEVIAATPLINAIQTHYPALPITVTTFTQTASERVQAIFANTVSHIYLPFDLPFAVNRFIKFTQPRLFIVIETELWPNLITQTYRQHIPFIIANGRLSARSLKHYQWFNPALQKILNQISMIIAQDQISAERYAQLGFNSQQLTTAGNLKFDLEISEQLRQTIQKTKQTLTLGNRPVWIAGSTHEGEDEIILATHQQLLSEWPDLLLILAPRHPNRFKNVENLLIKSELCYVKRSQQCPLTDHTQVLLADTLGEMMILYGLANIAFVGGSLIKHGGHNPLEPIAFGLPIISGIHTFNFLEIFNKLKAIHGVIEVTNDPADLAQAVNLLLKDPKKYTAIAQAGLSMLKANQGSLQRHLQLLAPYLEKLEHHHHHH	not soluble
MGSDKIHHHHHHMNVVVQKYGGSSVATPERIKNVAQRIKKKVDEGYKVVVVVSAMGKTTDNLIKLAKEISPRPDSRELDMLLATGEQVSAALLSMALKDLGVKAKSLNAFQVKIKTTPHHTSARIVDIDDSVIRENLKDYDVLVVTGFQGVNEHGDLTTLGRGGSDTSAVALAAKLRVPCEIYSDVDGIYTCDPRVHPRAKKLAYITYDEALELTALGAKVLHSRSVEIAKKYGIPIYCASSFTEEEGTMVVERLPEWLEEPVVTGATISHGQIKVSISFLPKDVKYITAIFEEVGKRALNVDMISLVPSNGKVFLSFTILEDHKEDLDEALKEALRDVEGWKSTYEGGFAKLSIVGVGMRTSPGVAARFFEALERAGVTPELVTTSEIKISCLVPEEKAEEALKSVIEEFEL	not soluble
MNLHEYQAKQLFARYGLPAPVGYACTTPREAEEAASKIGAGPWVVKCQVHAGGRGKAGGVKVVNSKEDIRAFAENWLGKRLVTYQTDANGQPVNQILVEAATDIAKELYLGAVVDRSSRRVVFMASTEGGVEIEKVAEETPHLIHKVALDPLTGPMPYQGRELAFKLGLEGKLVQQFTKIFMGLATIFLERDLALIAINPLVITKQGDLICLDGKLGADGNALFRQPDLREMRDQSQEDPREAQAAQWELNYVALDGNIGCMVNGAGLAMGTMDIVKLHGGEPANFLDVGGGATKERVTEAFKIILSDDKVKAVLVNIFGGIVRCDLIADGIIGAVAEVGVNVPVVVRLEGNNAELGAKKLADSGLNIIAAKGLTDAAQQVVAAVEGK	soluble
MSLESPISEKKPPVIVQEVEQKPEVVEKENILIEQEKEVIKPLDVPLILQKPELMRGCEVTSLAMVLQFSGVKVDKMELASKIHYVPFQSNGLKGNMHKGFIGDMATFDKPGLGVFVEPILELAKLYVPDEKVMNLSYKEPEHIYEAIDRGLPVWVLTNARFKRLPDNQFYTWRTDTGEMKVTYHQHSVVVTDYDDQYVYINDPLKTDKHRAINRNNFEQSWIQMGRQAMTISIEGHHHHHH	not soluble
MSLNIFDHYRQRYEAAKDEEFTLQEFLTTCRQDRSAYANAAERLLMAIGEPVMVDTAQDPRLSRLFSNRVIARYPAFEEFYGMEDAIEQIVSYLKHAAQGLEEKKQILYLLGPVGGGKSSLAERLKSLMQLVPIYVLSANGERSPVNDHPFCLFNPQEDAQILEKEYGIPRRYLGTIMSPWAAKRLHEFGGDITKFRVVKVWPSILQQIAIAKTEPGDENNQDISALVGKVDIRKLEHYAQNDPDAYGYSGALCRANQGIMEFVEMFKAPIKVLHPLLTATQEGNYNGTEGISALPFNGIILAHSNKSEWVTFRNNKNNEAFLDRVYIVKVPYCLRISEEIKIYEKLLNHSELTHAPCAPGTLETLSRFSILSRLKEPENSSIYSKMRVYDGESLKDTDPKAKSYQEYRDYAGVDEGMNGLSTRFAFKILSRVFNFDHVEVAANPVHLFYVLEQQIEVYWQEGHHHHHH	not soluble
GPVGYGAATTGGGNKVPVNVATFEAMQSAIDSYSGSGGLVLNYTGKFDFGTIKDVCAQWKLPAKTVQIKNKSDVTIKGANGSAANFGIRVVGNAHNVIIQNMTIGLLQGGEDADSISLEGNSSGEPSKIWVDHNTVFASLTKCSGAGDASFDGGIDMKKGVHHVTVSYNYVYNYQKVALNGYSDSDTKNSAARTTYHHNRFENVESRVPLQRFGLSHIYNNYFNNVTTSGINVRMGGIAKIESNYFENIKNPVTSRDSSEIGYWDLINNYVGSGITWGTPDGSKPYANATNWISTKVFPESLGYIYTVTPAAQVKAKVIATAGAGKNLAE	soluble
MPMPNLPKELVEEILSFVPATYLKRLSATCKPWNRLIHNDKRFARKHYDNAAKEFLVFMMRKNFRIIRRGVNLHGADPSAEVKGELTLPDPYFKNSADEFHIDRVFHCDGLLLCTSKLERRMVVWNPLTGETKWIQTHEEGDNFFLGYSQEDKNISCKKSYKIMGFYRSGSKVWEYDFNSDSWRVLNGILPNWYFDKSYKCVSLKGNTYMLAGAVTDMGFDLSLQSYDFSTEKFAPVSLPVPSQARSLNGANRLSVVRGEKLALLYRRDKRSKAEIWVTNKIDDTTEGAVSWTKVLELDLSRELHALFTSNFLVDEEKKVFICCVSWKEDEDENKSNKVYIVGEDNIVKEIDSGEDATSGCEPTILSLYVPSLVYM	soluble
MAKYEEAFKRQVVQEYLRGAVGTAGLSQKYGIGRSVIRRWINAWQRHGKSGLRKKHEAYSAEFKLTVLQRMWRDELSYQQVSAVFDLREAGGVSRWDRQYHEGGFDALQPRRKGGAPIMSQSKQDPQPAAQPAQDERSREDLLKENECLRAEVAYLKKLDALLRAKQQQAPKKKRKSLEHHHHHH	not soluble
GMSSSGIEIAKPFVTATTNVLSTMAGIQPIPGQPYVKKNNVAKGDVSAVVGITGHKNGSISVTFTKQCAIAVVKAMLGDDIQDIIQDTKDAVGEVTNMISGQARAALSEMGMTFQGATPSVIMGDGHTISHVTKSPVIAIPFKTNHGEFTVEFCLE	soluble
SQQVDKIKASYPLFLDQDYKDMLAKKRDGFEEKYPQDKIDEVFQWTTTKEYQELNFQREALTVNPAKACQPLGAVLCALGFEKTMPYVHGSQGCVAYFRSYFNRHFREPVSCVSDSMTEDAAVFGGQQNMKDGLQNCKATYKPDMIAVSTTCMAEVIGDDLNAFINNSKKEGFIPDEFPVPFAHTPSFVGSHVTGWDNMFEGIARYFTLKSMDDKVVGSNKKINIVPGFETYLGNFRVIKRMLSEMGVGYSLLSDPEEVLDTPADGQFRMYAGGTTQEEMKDAPNALNTVLLQPWHLEKTKKFVEGTWKHEVPKLNIPMGLDWTDEFLMKVSEISGQPIPASLTKERGRLVDMMTDSHTWLHGKRFALWGDPDFVMGLVKFLLELGCEPVHILCHNGNKRWKKAVDAILAASPYGKNATVYIGKDLWHLRSLVFTDKPDFMIGNSYGKFIQRDTLHKGKEFEVPLIRIGFPIFDRHHLHRSTTLGYEGAMQILTTLVNSILERLDEETRGMQATDYNHDLVR	soluble
MAKITVGTENQAPIEIYYEDHGTGKPVVLIHGWPLSGRSWEYQVPALVEAGYRVITYDRRGFGKSSQPWEGYEYDTFTSDLHQLLEQLELQNVTLVGFSMGGGEVARYISTYGTDRIEKVVFAGAVPPYLYKSEDHPEGALDDATIETFKSGVINDRLAFLDEFTKGFFAAGDRTDLVSESFRLYNWDIAAGASPKGTLDCITAFSKTDFRKDLEKFNIPTLIIHGDSDATVPFEYSGKLTHEAIPNSKVALIKGGPHGLNATHAKEFNEALLLFLKD	not soluble
MVCVSFPLFPEREADLCQRLVHLLDELRHHFVEIGHVLRIPLNDDVVNAFAFHARVVVCKEPCVFSGHPHAVLHLGHVRRLDGFETAKAEFHEVAGGERAFKLKAEPVTAQAVRGAGGAHALVTEQDRRLRDFHVSGELEEGAGVFFVLLAPGQRLGVNLWRYTGAYLGEQGVEVGHFHVCPFAARSRLGNDVVSVRGSNNSEP	not soluble
MTLILKRVQLLKDKPRREAIDRFLRQHQLSLEADCEMAIIAEYQQRLVGCGAIAGNVLKCIAIDPSLQGEGLSLKLLTELLTLAYELGRSELFLFTKPCNAALFSGAGFWPIAQAGDRAVLMENSRERLTRYCRQLAMYRQPGRKIGAIVMNANPFTLGHRWLVEQAASQCDWLHLFVVKEDASCFSYHDRFKLIEQGITGIDKVTLHPGSAYLISRATFPGYFLKEQGVVDDCHSQIDLQLFRERLAPALQITHRFVGTEPLCPLTRNYNQRMKSLLEAPGDAPPIEVVELARIEKNGGPVSASRVRELYRQRNWQAVAALVPPGTLSFLMQLAESEHQTA	not soluble
